Positions count from the first letter of the chain named. Values joined by “and” are separate entries in the source; they are usually repeats but may differ in a detail not shown here. Equal values may be shown once.
B1: mAb 19B (antibody, human IgG1)
VH: QVQLVVESGGGLRPGGSLRLSCAASGTTLSGYTMHWVRQAPGKGLEWVSSITGGSNFINYSDSVKGRFTISRDNAKNSLYLQMNSLTAEDTAVYYCATAPIAPPYFDHWGQGTLVTVSS
light: DIQMTQSPSSLSASVGDRVTITCRATQSVSNFLNWYQQKPGEAPTLLIYDASTSQSGVPSRFSGSGSGMDFSLTISSLQPEDLAMYYCQASINTPLFGGGTRIDMRR
modifications: N-linked carbohydrate at Asn59 in part of the molecules (glycovariant)
notes: Human IgG1, kappa; also called Hu19B; version B
B2: Fab19B (Fab)
VH: B1 VH
light: DIQMNFLNWYQQKPGEAPTLLIYDASTSQSGVPSRFSGSGSGMDFSLTISSLQPEDLAMYYCQASINTPLFGGGTRIDMRR
modifications: N-linked carbohydrate at Asn59 in <10% of the preparation (Table 4)
B3: mAb 19D (antibody, human IgG1)
VH: B1 VH with N59Q
light: not shown
B4: mAb 19C (antibody, human IgG1)
VH: B1 VH with S61A
light: not shown
B5: Fab19 (Fab)
VH: EVQLLEVESGGGLRPGGSLRLSCAASGTTLSGYTMHWVRQAPGKGLEWVSSITGGSNFINYSDSVKGRFTISRDNAKNSLYLQMNSLTAEDTAVYYCATAPIAPPYFDHWGQGTLVTVSS
light: ELTQSPSSLSASVGDRVTITCRATQSVSNFLNWYQQKPGEAPTLLIYDASTSQSGVPSRFSGSGSGMDFSLTISSLQPEDLAMYYCQASINTPLFGGGTRIDMRR
B6: Fab19A (Fab)
VH: B5 VH
light: B5 light
B7: mAb 19A (antibody, human IgG1)
VH: B5 VH
light: B5 light
B8: mAb 19B Fraction A (<5% glycovariant) (antibody, human IgG1)
VH: B1 VH
light: B2 light
modifications: N-linked carbohydrate at Asn59 in <5% of the preparation
B9: Fab19B Fraction C (99% glycovariant) (Fab)
VH: B1 VH
light: B2 light
modifications: N-linked carbohydrate at Asn59 in 99% of the preparation
B10: Fab19B Fraction A (1% glycovariant) (Fab)
VH: B1 VH
light: B2 light
modifications: N-linked carbohydrate at Asn59 in 1% of the preparation
B11: mAb 19B Fraction B (40% glycovariant) (antibody, human IgG1)
VH: B1 VH
light: B2 light
modifications: N-linked carbohydrate at Asn59 in 40% of the preparation
B12: Fab19B Fraction B (94% glycovariant) (Fab)
VH: B1 VH
light: B2 light
modifications: N-linked carbohydrate at Asn59 in 94% of the preparation

The binders below were run against T1, F protein of RS Long strain virus (native form, on virus and infected VERO cells) (Respiratory Syncytial Virus, UniProt P12568 26-574) (assay: cell-based or functional assay).
T1 sequence (P12568 26-574): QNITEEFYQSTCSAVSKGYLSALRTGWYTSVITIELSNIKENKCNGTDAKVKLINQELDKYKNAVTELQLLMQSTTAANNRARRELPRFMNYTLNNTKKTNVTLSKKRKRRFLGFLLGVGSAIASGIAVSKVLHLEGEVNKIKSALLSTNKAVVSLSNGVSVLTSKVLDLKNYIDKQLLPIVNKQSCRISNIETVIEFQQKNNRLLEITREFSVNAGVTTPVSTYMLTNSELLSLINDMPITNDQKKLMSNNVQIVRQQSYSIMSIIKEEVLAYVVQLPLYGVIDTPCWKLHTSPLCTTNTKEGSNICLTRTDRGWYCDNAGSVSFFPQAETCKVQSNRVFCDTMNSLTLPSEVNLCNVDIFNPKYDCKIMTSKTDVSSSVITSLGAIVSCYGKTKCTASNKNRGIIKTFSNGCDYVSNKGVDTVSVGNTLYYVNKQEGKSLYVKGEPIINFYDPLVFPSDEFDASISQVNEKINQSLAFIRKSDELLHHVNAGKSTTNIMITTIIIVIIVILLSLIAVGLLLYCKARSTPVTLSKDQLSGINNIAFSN

Q: Which “Fusion-Inhibition EC50” value does the source give for B1 here?
A: 2.3 ug/ml and 15.3 nM

Q: What about the “Neutralization EC50” value of the same binder?
A: 1.5 µg/mL

Q: With B2 as the binder, how does the “Fusion-Inhibition EC50” value read?
A: 0.12 ug/ml and 2.4 nM

Q: For B3, which “Fusion-Inhibition EC50” value is on record?
A: 2.6 ug/ml and 17.3 nM

Q: With B4 as the binder, how does the “Fusion-Inhibition EC50” value read?
A: 2.4 ug/ml and 16 nM

Q: What does the source list for B5?
A: Fusion-Inhibition EC50: 0.22 ug/ml and 4.4 nM; Neutralization EC50: 0.34 µg/mL

Q: How did the “Fusion-Inhibition EC50” value turn out when B6 was run?
A: 0.16 ug/ml and 3 nM

Q: Which “Fusion-Inhibition EC50” value does the source give for B7 here?
A: 18.9 nM and 2.8 ug/ml

Q: And the “Neutralization EC50” value?
A: 2.2 µg/mL

Target: T1, F protein of RS Long strain virus …
Assay: cell-based or functional assay
Remark: another data set of the same source

Q: With B1 as the binder, how does the “Fusion-Inhibition Titer EC50” value read?
A: 2.3 µg/mL

Target: T1, F protein of RS Long strain virus …
Assay: cell-based or functional assay
Remark: another data set of the same source

Q: How did the “Fusion-Inhibition Titer EC50” value turn out when B1 was run?
A: 2.5 µg/mL

Q: For B8, which “Fusion-Inhibition Titer EC50” value is on record?
A: 1.8 µg/mL

Q: B2 was tested. Which “Fusion-Inhibition Titer EC50” value did it give?
A: 0.12 µg/mL

Q: B9 was tested. Which “Fusion-Inhibition Titer EC50” value did it give?
A: 3.7 µg/mL

Q: How did the “Fusion-Inhibition Titer EC50” value turn out when B10 was run?
A: 0.89 µg/mL

Q: With B11 as the binder, how does the “Fusion-Inhibition Titer EC50” value read?
A: 3.8 µg/mL

Q: Which “Fusion-Inhibition Titer EC50” value does the source give for B12 here?
A: 1.5 µg/mL

What follows are binders tested against T1, F protein of RS Long strain virus … (assay: ELISA on methanol-fixed VERO cells infected with RS Long virus, biotinylated mAb 19B, HRP-streptavidin).

Q: How did the EC50 turn out when B1 was run?
A: 0.034 µg/mL
